Results published in the Human Domainome abundance scans (Beltran et al. 2025).
± gives the uncertainty stated by the source.

B1: Homeobox protein cut-like 2, residues 895 to 963; numbered along this chain, O14529 (parent)
chain: EVDTLELTRQVKEKLAKNGICQRIFGEKVLGLSQGSVSDMLSRPKPWSKLTQKGREPFIRMQLWLSDQL

Variants of: B1
Experiment: abundance fitness (aPCA) (normalised: wild type 0, dead -1); higher = more abundant; growth selection in yeast, the domain comes from the species named
Conditions: Homo sapiens

Variant	abundance fitness
EVDTLELTRQVKEKLAKNGICQRIFGEKVLGLSQGSVSDHLSRPKPWSKLTQKGREPFIRMQLWLSDQL [M40H]	-0.287 ± 0.081
EVDTLELTRQVKEKLAKNGICQRIFGEKVLGLSQGSVSDCLSRPKPWSKLTQKGREPFIRMQLWLSDQL [M40C]	-0.045 ± 0.082
EVDTLELTRQVKEKLAKNGICQRIFGEKVLGLSQGSVSYMLSRPKPWSKLTQKGREPFIRMQLWLSDQL [D39Y]	-0.324 ± 0.11
EVDTLELTRQVKEKLAKNGICQRIFGEKVLGLSQGSVSDMLSRPKPWSKLTQKGREPFIRMQLALSDQL [W64A]	-1.17 ± 0.089
EVDTLELTRQVKEKLAKNGICQRIFGEKVLGLSQGSVSDMLSRPKPWSKLTQKGREPFIRMQLRLSDQL [W64R]	-0.945 ± 0.063
EVDTLELTRQVKEKLAKNGICQRIFGEKVLGLSQGSVSDMLSRPKPWYKLTQKGREPFIRMQLWLSDQL [S48Y]	-0.084 ± 0.062
EVDTLELTRQVKEKLAKNGICQRIFGEKVLGLSQGSVSDMLSRPKPWPKLTQKGREPFIRMQLWLSDQL [S48P]	-0.229 ± 0.034
EVDTLELTRQVKEKLAINGICQRIFGEKVLGLSQGSVSDMLSRPKPWSKLTQKGREPFIRMQLWLSDQL [K17I]	-0.292 ± 0.066
EVDTLELTRQVKEKLAVNGICQRIFGEKVLGLSQGSVSDMLSRPKPWSKLTQKGREPFIRMQLWLSDQL [K17V]	-0.169 ± 0.027
EVDTLELTRQVKEKLAKNGICQRIFGEKVLGLSQGSVSDMLSRPKPWSKLTQKGREPFIRMQLWLSMQL [D67M]	-0.25 ± 0.04
EVDTLELTRQVKEELAKNGICQRIFGEKVLGLSQGSVSDMLSRPKPWSKLTQKGREPFIRMQLWLSDQL [K14E]	-0.073 ± 0.071
EVDTLELTRQVKEKLAKNGIPQRIFGEKVLGLSQGSVSDMLSRPKPWSKLTQKGREPFIRMQLWLSDQL [C21P]	0.027 ± 0.057
EVDTLELTRQVKEKLAKNGICCRIFGEKVLGLSQGSVSDMLSRPKPWSKLTQKGREPFIRMQLWLSDQL [Q22C]	-0.306 ± 0.1
EVDTLELTRQGKEKLAKNGICQRIFGEKVLGLSQGSVSDMLSRPKPWSKLTQKGREPFIRMQLWLSDQL [V11G]	-0.146 ± 0.029
EVDTLELTRQVKEKLAKNGICQRIFGEKVLGLSQGSVSDMLSRPKPWSKLTQKGREPFIRMQLWLSDSL [Q68S]	-0.097 ± 0.061
EVDTLELTTQVKEKLAKNGICQRIFGEKVLGLSQGSVSDMLSRPKPWSKLTQKGREPFIRMQLWLSDQL [R9T]	-0.135 ± 0.047
EVDTYELTRQVKEKLAKNGICQRIFGEKVLGLSQGSVSDMLSRPKPWSKLTQKGREPFIRMQLWLSDQL [L5Y]	-0.033 ± 0.051
EVDTLELTRQVKEKLAKNGICQRIFGEKVLGMSQGSVSDMLSRPKPWSKLTQKGREPFIRMQLWLSDQL [L32M]	-0.032 ± 0.053
EVDTLELTRQVKEKLAKNGICQRIFGEKVLGYSQGSVSDMLSRPKPWSKLTQKGREPFIRMQLWLSDQL [L32Y]	-0.281 ± 0.035
EVDTLELTRQVKEKLAKNGICQRIFGEKVLGLSQGSVSDMLSRPKPWSKLTQYGREPFIRMQLWLSDQL [K53Y]	-0.061 ± 0.14

Variant	abundance fitness
EVDTLELTRQVKEKLAKNGICQRIFGEKVLGLSQGSVSDMLSRPKPWSKLTQNGREPFIRMQLWLSDQL [K53N]	-0.233 ± 0.095
EVGTLELTRQVKEKLAKNGICQRIFGEKVLGLSQGSVSDMLSRPKPWSKLTQKGREPFIRMQLWLSDQL [D3G]	-0.253 ± 0.033
EVMTLELTRQVKEKLAKNGICQRIFGEKVLGLSQGSVSDMLSRPKPWSKLTQKGREPFIRMQLWLSDQL [D3M]	-0.163 ± 0.027
EVDTLELHRQVKEKLAKNGICQRIFGEKVLGLSQGSVSDMLSRPKPWSKLTQKGREPFIRMQLWLSDQL [T8H]	-0.19 ± 0.046
EVDTLELGRQVKEKLAKNGICQRIFGEKVLGLSQGSVSDMLSRPKPWSKLTQKGREPFIRMQLWLSDQL [T8G]	-0.204 ± 0.04
EVDTLELTRQVKEKLAKNGICQRIFKEKVLGLSQGSVSDMLSRPKPWSKLTQKGREPFIRMQLWLSDQL [G26K]	-0.207 ± 0.049
EVDTLELTRQVKEKLAKNGICQRIFQEKVLGLSQGSVSDMLSRPKPWSKLTQKGREPFIRMQLWLSDQL [G26Q]	-0.584 ± 0.12
EVDTLELTRQVKEKLAKNGICQRIFMEKVLGLSQGSVSDMLSRPKPWSKLTQKGREPFIRMQLWLSDQL [G26M]	-0.153 ± 0.039
EVDTLELTRQVKCKLAKNGICQRIFGEKVLGLSQGSVSDMLSRPKPWSKLTQKGREPFIRMQLWLSDQL [E13C]	-0.205 ± 0.091
EVDTLELTRQVKDKLAKNGICQRIFGEKVLGLSQGSVSDMLSRPKPWSKLTQKGREPFIRMQLWLSDQL [E13D]	0.117 ± 0.092
EVDTLELTRQVKEKLAKNGICQRIFGEKVLGLSQGSVSDMLDRPKPWSKLTQKGREPFIRMQLWLSDQL [S42D]	0.039 ± 0.07
EVDTLELTRQVKEKLAKNGICQRIFGEKVLGLSQGSVTDMLSRPKPWSKLTQKGREPFIRMQLWLSDQL [S38T]	0.006 ± 0.026
EVDTLELTRQVKEKLAKNGICQRIFGEKVFGLSQGSVSDMLSRPKPWSKLTQKGREPFIRMQLWLSDQL [L30F]	-0.186 ± 0.038
EVDTLELTRQVKEKLAKNGICQRIFGEKVLGLSQGSVSDMLSRPKPWSKLEQKGREPFIRMQLWLSDQL [T51E]	-0.403 ± 0.056
EVDTLELTRQVTEKLAKNGICQRIFGEKVLGLSQGSVSDMLSRPKPWSKLTQKGREPFIRMQLWLSDQL [K12T]	-0.271 ± 0.045
EVDTLELTRQVKEKLAKNGICQRIFGEKVLGLSQGSVSDMLSRPKIWSKLTQKGREPFIRMQLWLSDQL [P46I]	-0.071 ± 0.046
EVDTLELTRQVKEKLAKNGICQRIFGEKVLGLSQGSVSDMLSSPKPWSKLTQKGREPFIRMQLWLSDQL [R43S]	0.064 ± 0.029
EVDTLELTRQVKEKLAKNGICQRIFGEKVLELSQGSVSDMLSRPKPWSKLTQKGREPFIRMQLWLSDQL [G31E]	-0.48 ± 0.1
EVDTLELTRQVKEKLAKNGICQRIFGEKVLGLSQGSVSDMLSRPKPWSKGTQKGREPFIRMQLWLSDQL [L50G]	-0.652 ± 0.085
